One assay deals with T1, PD-L1-his (human, UniProt Q9NZQ7 19-238, limits assumed).
T1 construct: also called human PD-L1 protein
Nature of the assay: BLI, Fortebio Octet RED96, antibody on AHC sensor, PD-L1-his in solution. In general terms: In BLI a coated tip is dipped into the sample, and binding shifts an interference pattern.

Assay [1] addresses T2, human PD-L1 on hPD-L1-CHO-K1 cells (human, UniProt Q9NZQ7 19-290).
T2 construct: whole, on cells; The making of this cell line is not described
Nature of the assay: FACS on hPD-L1-CHO-K1 cells.

For assay [2], the target named is T3, TIGIT-his (extracellular region of human TIGIT protein fused with his) (human, UniProt Q495A1 22-141).
T3 construct: also called antigen TIGIT-his
T3 sequence: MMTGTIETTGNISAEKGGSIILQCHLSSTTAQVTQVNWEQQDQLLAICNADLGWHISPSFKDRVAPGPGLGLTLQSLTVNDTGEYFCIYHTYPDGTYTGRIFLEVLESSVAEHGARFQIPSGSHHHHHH
Nature of the assay: BLI, Fortebio Octet RED96, antibody on AHC sensor, TIGIT-his in solution.

The target in assay [3] is T4, full-length TIGIT on hTIGIT-CHO-K1 cells (human, UniProt Q495A1 22-244).
T4 construct: CHO-K1 cells stably transfected with pTargeT-TIGIT; also called TIGIT on cell surface
T4 sequence: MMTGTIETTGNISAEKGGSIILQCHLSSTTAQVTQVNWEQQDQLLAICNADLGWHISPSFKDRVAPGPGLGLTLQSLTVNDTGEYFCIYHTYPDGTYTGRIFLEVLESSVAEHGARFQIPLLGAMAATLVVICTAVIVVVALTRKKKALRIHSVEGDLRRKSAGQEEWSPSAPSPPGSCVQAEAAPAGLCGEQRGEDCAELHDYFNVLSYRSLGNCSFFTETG
The assay is described as follows: FACS on hTIGIT-CHO-K1 cells.

In assay [4] the target is T2, human PD-L1 on hPD-L1-CHO-K1 cells. Nature of the assay: FACS, blocking of PD-1-mFc binding to hPD-L1-CHO-K1 cells (competitor PD-1-mFc). (In general: A flow cytometer gives signals particle by particle.)
Assay [5] has as its target T5, TIGIT-mFc (extracellular region of human TIGIT with mIgG1-Fc tag) (human).
T5 construct: A bought TIGIT-mFc (Acro Biosystems TIT-H5253) is used for immunization; also called recombinant humanized TIGIT-mFc
T5 chain: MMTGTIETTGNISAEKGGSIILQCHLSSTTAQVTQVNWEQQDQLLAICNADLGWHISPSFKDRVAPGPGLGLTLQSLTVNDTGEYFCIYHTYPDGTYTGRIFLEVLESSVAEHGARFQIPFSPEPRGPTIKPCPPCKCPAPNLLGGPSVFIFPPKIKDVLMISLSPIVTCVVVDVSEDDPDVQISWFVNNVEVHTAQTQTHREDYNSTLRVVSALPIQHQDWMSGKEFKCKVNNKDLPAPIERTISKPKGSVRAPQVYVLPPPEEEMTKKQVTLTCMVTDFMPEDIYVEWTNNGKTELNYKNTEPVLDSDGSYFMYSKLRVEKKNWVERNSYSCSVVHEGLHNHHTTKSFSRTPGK
Nature of the assay: FACS, blocking of TIGIT-mFc binding to cells (TIGIT/CD155; cells printed as hTIGIT-CHO-K1).

T1 sequence (Q9NZQ7 19-238 limits assumed): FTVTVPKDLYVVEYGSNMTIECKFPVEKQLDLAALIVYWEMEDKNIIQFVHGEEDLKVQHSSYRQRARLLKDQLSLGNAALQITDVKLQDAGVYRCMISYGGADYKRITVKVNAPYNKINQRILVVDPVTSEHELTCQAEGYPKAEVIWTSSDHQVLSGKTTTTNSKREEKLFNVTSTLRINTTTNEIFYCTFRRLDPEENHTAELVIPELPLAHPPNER
T2 sequence (Q9NZQ7 19-290): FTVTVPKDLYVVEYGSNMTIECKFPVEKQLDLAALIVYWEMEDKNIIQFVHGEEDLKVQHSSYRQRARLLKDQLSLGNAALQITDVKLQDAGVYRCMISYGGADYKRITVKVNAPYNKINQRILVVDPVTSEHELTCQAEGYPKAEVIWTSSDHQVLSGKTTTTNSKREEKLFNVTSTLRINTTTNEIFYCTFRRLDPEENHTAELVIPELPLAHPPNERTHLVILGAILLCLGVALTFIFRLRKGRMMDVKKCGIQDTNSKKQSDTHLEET

B1: HuPL721-T2353-ScFab (bispecific antibody, human IgG4 S228P, kappa)
chain 1: DIQMTQSPSSLSASVGDRVTITCRTSQDIGNSLRWFQQKPGKAPKLLIHGATNLANGVPSRFSGSGSGTDFTLTISSLQPEDFATYYCLQHNEYPLTFGCGTKLEIKRTVAAPSVFIFPPSDEQLKSGTASVVCLLNNFYPREAKVQWKVDNALQSGNSQESVTEQDSKDSTYSLSSTLTLSKADYEKHKVYACEVTHQGLSSPVTKSFNRGECGGGGSGGGGSGGGGSGGGGSGGGGSGGGGSGGGGSGGGGSEVQLVESGGGLVQPGGSLRLSCAASGFTFSDHWMSWVRQAPGKCMEWIGNIQYDGSYTNYAPSLKNRFTISRDNAKNSLYLQMNSLRAEDTATYYCTRGHFRITMASMGASASVYWGQGTMVTVSSASTKGPSVFPLAPCSRSTSESTAALGCLVKDYFPEPVTVSWNSGALTSGVHTFPAVLQSSGLYSLSSVVTVPSSSLGTKTYTCNVDHKPSNTKVDKRVESKYGPPCPPCPAPEFLGGPSVFLFPPKPKDTLMISRTPEVTCVVVDVSQEDPEVQFNWYVDGVEVHNAKTKPREEQFNSTYRVVSVLTVLHQDWLNGKEYKCKVSNKGLPSSIEKTISKAKGQPREPQVYTLPPCQEEMTKNQVSLWCLVKGFYPSDIAVEWESNGQPENNYKTTPPVLDSDGSFFLYSRLTVDKSRWQEGNVFSCSVMHEALHNHYTQKSLSLSLGK
chain 2: not shown
notes: each is light chain - GGGGS linker - heavy chain, IgG4
Turning to B1, the values for the Kd (with PD-L1-his; in assay [2]) were 1.32 nM and 3.06 nM, respectively. Moreover, the koff (as a rule, the rate constant with which the complex falls apart) is 0.000273 s⁻¹ in the assay with PD-L1-his and 0.00333 s⁻¹ in assay [2]. In addition, the kon (as a rule, a measure of how fast the partners come together) was 207000 M⁻¹ s⁻¹ with PD-L1-his and 1.09e+06 M⁻¹ s⁻¹ in assay [2]. Moreover, the results for the EC50 in assay [1] and in assay [3] were 1.77 nM and 1.3 nM, respectively. Further, the half-inhibitory concentration (IC50) (in general, the point on the concentration scale where inhibition reaches its midpoint) in assay [4] was 3.19 nM; in assay [5], 4.08 nM.

B2: HuPL1642-T2353-ScFv (bispecific antibody, human IgG4 S228P, kappa)
heavy: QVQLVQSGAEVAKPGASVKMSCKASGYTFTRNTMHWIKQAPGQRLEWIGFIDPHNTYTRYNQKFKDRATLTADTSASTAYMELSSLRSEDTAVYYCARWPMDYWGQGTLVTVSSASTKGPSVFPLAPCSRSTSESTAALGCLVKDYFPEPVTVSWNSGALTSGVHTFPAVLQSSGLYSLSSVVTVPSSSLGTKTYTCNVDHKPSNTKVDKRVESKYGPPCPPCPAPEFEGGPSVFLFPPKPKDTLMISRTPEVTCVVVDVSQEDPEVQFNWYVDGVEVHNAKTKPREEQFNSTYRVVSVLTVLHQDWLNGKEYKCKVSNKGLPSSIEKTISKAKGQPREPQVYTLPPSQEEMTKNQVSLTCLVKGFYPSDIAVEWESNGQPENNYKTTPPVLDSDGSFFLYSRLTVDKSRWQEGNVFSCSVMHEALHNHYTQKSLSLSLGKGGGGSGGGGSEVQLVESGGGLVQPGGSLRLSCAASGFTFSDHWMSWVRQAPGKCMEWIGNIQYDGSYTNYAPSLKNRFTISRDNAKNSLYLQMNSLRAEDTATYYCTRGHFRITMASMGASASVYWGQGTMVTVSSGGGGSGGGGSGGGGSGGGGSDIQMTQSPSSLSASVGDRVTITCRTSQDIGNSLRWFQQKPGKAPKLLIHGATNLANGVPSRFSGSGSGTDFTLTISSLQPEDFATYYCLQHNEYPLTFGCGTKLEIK
light: DIVMTQSPDSLAVSLGERVTMRCKSSQSLSWSENQNNYLSWYQQKPGQPPKLLIYGASIRESGVPDRFSGSGSGTDFTLTISSVQAEDVGVYYCQHNHGSFLPYTFGQGTKLEIKRTVAAPSVFIFPPSDEQLKSGTASVVCLLNNFYPREAKVQWKVDNALQSGNSQESVTEQDSKDSTYSLSSTLTLSKADYEKHKVYACEVTHQGLSSPVTKSFNRGEC
notes: Symmetrical structure: PL1642-T2353-scFv-HC and HuPL1642-VL2
Turning to B2, in the assay with PD-L1-his, binding was put at a Kd of 2.08 nM, the koff was determined as 0.000326 s⁻¹ and the kon stood at 157000 M⁻¹ s⁻¹. In addition, in assay [1], the response was half-maximal at 0.955 nM (EC50). In addition, in assay [2], the Kd (usually the equilibrium constant for the complex coming apart) turned out to be 2.74 nM, the koff stood at 0.00239 s⁻¹ and the kon came to 872000 M⁻¹ s⁻¹. For the same molecule, in assay [5], the IC50 is 1.68 nM.

The values above are taken from patent publication US20240262915A1 (NANJING SANHOME PHARMACEUTICAL, published 2024).
